# According to patent US20210324054A1:
# Target: DN-IV quality control recombinant protein (produced by the company) (dengue virus)
# Experiment: BLI, antibody on AMC sensor
Kd,koff,kon,Binder
0.499 nM,0.000249 s⁻¹,499000 M⁻¹ s⁻¹,"Mutation 1-6 (antibody, V domains shown) VH: EVQLQQPGPELVKPGASVKMSCKASGYTFTSTVIHWVRQKPGQGLEWIGYMNPYNDGIKYNEKFIGKAILTSDKSSSTAYMQLSSLTSEDSAVYYCTKEGLFYVMDYWGQGTSVTVSS VL: QIVLTQSPAIMSASPGEKVTMTCSATSSISYMHWYQQKSGTSPKRWIYDTSKLASGVPVRFSGSGSGTSYSLTISSMEAEDAATYFCQYWRSDLPTFGAGTKLELKR"
2.65 nM,0.000129 s⁻¹,48700 M⁻¹ s⁻¹,"Mutation 1-10 (antibody, V domains shown) VH: EVQLQQPGPELVKPGASVKMSCKASGYTFTSSVIHWVRQKPGQGLEWIGYMNPYNDGIKYNEKFIGKAILTSDKSSSTAYMQLSSLTSEDSAVYYCTKEGLFYVMDYWGQGTSVTVSS VL: QIVLTQSPAIMSASPGEKVTMTCSATSSLSYMHWYQQKSGTSPKRWIYDTSKLASGVPVRFSGSGSGTSYSLTISSMEAEDAATYFCQWWRSDLPTFGAGTKLELKR"
0.725 nM,0.0003 s⁻¹,414000 M⁻¹ s⁻¹,"Mutation 1-11 (antibody, V domains shown) VH: EVQLQQPGPELVKPGASVKMSCKASGYTFTSYVIHWVRQKPGQGLEWIGYMNPYNDGLKYNEKFIGKAILTSDKSSSTAYMQLSSLTSEDSAVYYCTKEGLFYVFDYWGQGTSVTVSS VL: QIVLTQSPAIMSASPGEKVTMTCSATSSVSYMHWYQQKSGTSPKRWIYDSSKLASGVPVRFSGSGSGTSYSLTISSMEAEDAATYFCQQWRSDLPTFGAGTKLELKR"
3.47 nM,0.000151 s⁻¹,43500 M⁻¹ s⁻¹,"Mutation 1-13 (antibody, V domains shown) VH: EVQLQQPGPELVKPGASVKMSCKASGYTFTSSVIHWVRQKPGQGLEWIGYMNPYNDGLKYNEKFIGKAILTSDKSSSTAYMQLSSLTSEDSAVYYCTREGLFYVFDYWGQGTSVTVSS VL: QIVLTQSPAIMSASPGEKVTMTCSATSSLSYMHWYQQKSGTSPKRWIYDSSKLASGVPVRFSGSGSGTSYSLTISSMEAEDAATYFCQWWRSDLPTFGAGTKLELKR"
0.66 nM,0.000284 s⁻¹,430000 M⁻¹ s⁻¹,"Mutation 1-9 (antibody, V domains shown) VH: EVQLQQPGPELVKPGASVKMSCKASGYTFTSTVIHWVRQKPGQGLEWIGYMNPYNDGLKYNEKFIGKAILTSDKSSSTAYMQLSSLTSEDSAVYYCTREGLFYVFDYWGQGTSVTVSS VL: QIVLTQSPAIMSASPGEKVTMTCSATSSISYMHWYQQKSGTSPKRWIYDSSKLASGVPVRFSGSGSGTSYSLTISSMEAEDAATYFCQYWRSDLPTFGAGTKLELKR"
2.86 nM,0.000122 s⁻¹,42600 M⁻¹ s⁻¹,"Mutation 1-12 (antibody, V domains shown) VH: EVQLQQPGPELVKPGASVKMSCKASGYTFTSTVIHWVRQKPGQGLEWIGYMNPYNDGIKYNEKFIGKAILTSDKSSSTAYMQLSSLTSEDSAVYYCTREGLFYVMDYWGQGTSVTVSS VL: QIVLTQSPAIMSASPGEKVTMTCSATSSISYMHWYQQKSGTSPKRWIYDTSKLASGVPVRFSGSGSGTSYSLTISSMEAEDAATYFCQYWRSDLPTFGAGTKLELKR"
0.652 nM,0.00024 s⁻¹,368000 M⁻¹ s⁻¹,"Mutation 1-7 (antibody, V domains shown) VH: EVQLQQPGPELVKPGASVKMSCKASGYTFTSSVIHWVRQKPGQGLEWIGYMNPYNDGLKYNEKFIGKAILTSDKSSSTAYMQLSSLTSEDSAVYYCTKEGLFYVFDYWGQGTSVTVSS VL: QIVLTQSPAIMSASPGEKVTMTCSATSSLSYMHWYQQKSGTSPKRWIYDSSKLASGVPVRFSGSGSGTSYSLTISSMEAEDAATYFCQWWRSDLPTFGAGTKLELKR"
4.08 nM,0.000172 s⁻¹,42200 M⁻¹ s⁻¹,"Mutation 1-8 (antibody, V domains shown) VH: EVQLQQPGPELVKPGASVKMSCKASGYTFTSYVIHWVRQKPGQGLEWIGYMNPYNDGIKYNEKFIGKAILTSDKSSSTAYMQLSSLTSEDSAVYYCTREGLFYVMDYWGQGTSVTVSS VL: QIVLTQSPAIMSASPGEKVTMTCSATSSVSYMHWYQQKSGTSPKRWIYDTSKLASGVPVRFSGSGSGTSYSLTISSMEAEDAATYFCQQWRSDLPTFGAGTKLELKR"
